Patent US20240025959A1 (UNIVERSITY OF SOUTHERN CALIFORNIA, published 2024)

T1: Beclin 2 (human, full length) (human, UniProt A8MW95 1-431)
T1 construct: All tagged and endogenous human forms are kept under this one id; the form used is named under assay; also called BECN2; Flag-Beclin 2
T1 sequence: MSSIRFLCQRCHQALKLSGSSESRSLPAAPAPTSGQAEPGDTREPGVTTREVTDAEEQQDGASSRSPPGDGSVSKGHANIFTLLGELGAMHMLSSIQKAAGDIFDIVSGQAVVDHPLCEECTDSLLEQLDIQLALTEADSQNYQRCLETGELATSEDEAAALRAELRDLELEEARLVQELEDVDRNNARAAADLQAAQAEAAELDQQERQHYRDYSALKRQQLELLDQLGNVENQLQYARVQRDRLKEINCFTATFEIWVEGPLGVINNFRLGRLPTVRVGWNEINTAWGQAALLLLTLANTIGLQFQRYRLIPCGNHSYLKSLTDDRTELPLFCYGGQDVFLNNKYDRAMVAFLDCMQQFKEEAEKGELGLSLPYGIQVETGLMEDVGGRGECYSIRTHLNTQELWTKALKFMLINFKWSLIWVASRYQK

T2: ATG9A (human) (human, UniProt Q7Z3C6 1-839)
T2 construct: Transmembrane protein; co-IP from RIPA lysates; Tagged and endogenous human forms kept under one id; also called Flag-ATG9A; HA-ATG9A
T2 sequence (looked up): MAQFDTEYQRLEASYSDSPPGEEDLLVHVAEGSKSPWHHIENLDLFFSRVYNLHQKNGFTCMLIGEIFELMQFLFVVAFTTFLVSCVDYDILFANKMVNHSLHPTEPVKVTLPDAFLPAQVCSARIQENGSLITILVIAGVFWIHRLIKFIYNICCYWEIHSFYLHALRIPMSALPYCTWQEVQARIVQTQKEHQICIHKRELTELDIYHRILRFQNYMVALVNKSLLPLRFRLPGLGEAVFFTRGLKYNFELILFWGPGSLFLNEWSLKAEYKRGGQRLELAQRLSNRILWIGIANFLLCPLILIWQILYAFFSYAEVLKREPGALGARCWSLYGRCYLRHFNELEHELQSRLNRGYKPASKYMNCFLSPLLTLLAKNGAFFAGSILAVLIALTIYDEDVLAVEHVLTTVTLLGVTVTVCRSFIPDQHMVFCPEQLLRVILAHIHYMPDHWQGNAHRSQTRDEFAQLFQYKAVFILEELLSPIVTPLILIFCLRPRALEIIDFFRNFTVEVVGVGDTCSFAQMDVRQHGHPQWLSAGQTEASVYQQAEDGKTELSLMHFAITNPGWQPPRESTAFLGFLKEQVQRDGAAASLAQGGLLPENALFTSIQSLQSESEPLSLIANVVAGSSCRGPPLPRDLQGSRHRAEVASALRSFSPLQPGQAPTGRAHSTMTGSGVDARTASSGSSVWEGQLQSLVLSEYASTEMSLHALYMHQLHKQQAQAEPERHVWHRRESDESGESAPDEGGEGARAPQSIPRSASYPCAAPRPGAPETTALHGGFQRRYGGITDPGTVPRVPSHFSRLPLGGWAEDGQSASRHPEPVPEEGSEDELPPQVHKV

B1: caspase 1 (enzyme, human, UniProt P29466 1-404, looked up)
chain: MADKVLKEKRKLFIRSMGEGTINGLLDELLQTRVLNKEEMEKVKRENATVMDKTRALIDSVIPKGAQACQICITYICEEDSYLAGTLGLSADQTSGNYLNMQDSQGVLSSFPAPQAVQDNPAMPTSSGSEGNVKLCSLEEAQRIWKQKSAEIYPIMDKSSRTRLALIICNEEFDSIPRRTGAEVDITGMTMLLQNLGYSVDVKKNLTASDMTTELEAFAHRPEHKTSDSTFLVFMSHGIREGICGKKHSEQVPDILQLNAIFNMLNTKNCPSLKDKPKVIIIQACRGDSPGVVWFKDSVGVSGNLSLPTTEEFEDDAIKKAHIEKDFIAFCSSTPDNVSWRHPTMGSVFIGRLIEHMQEYACSCDVEEIFRKVRFSFEQPDGRAQMPTTERVTLTRCFYLFPGH
notes: also called Flag-caspase 1
B2: SEC22A (other, human, UniProt Q96IW7 1-307, looked up)
chain: MSMILSASVIRVRDGLPLSASTDYEQSTGMQECRKYFKMLSRKLAQLPDRCTLKTGHYNINFISSLGVSYMMLCTENYPNVLAFSFLDELQKEFITTYNMMKTNTAVRPYCFIEFDNFIQRTKQRYNNPRSLSTKINLSDMQTEIKLRPPYQISMCELGSANGVTSAFSVDCKGAGKISSAHQRLEPATLSGIVGFILSLLCGALNLIRGFHAIESLLQSDGDDFNYIIAFFLGTAACLYQCYLLVYYTGWRNVKSFLTFGLICLCNMYLYELRNLWQLFFHVTVGAFVTLQIWLRQAQGKAPDYDV
B3: ATG9A (mouse, endogenous in BMDMs) (other, UniProt Q68FE2 2-839, looked up)
chain: AQFDTEYQRLEASYSDSPPGEEDLLVHVAEGSKSPWHHIENLDLFFSRVYNLHQKNGFTCMLIGEMFELMQFLFVVAFTTFLVSCVDYDILFANKMVNHSLHPTEPVKVTLPDAFLPAQVCSARIQENGSLITILVIAGVFWIHRLIKFIYNICCYWEIHSFYLHALRIPMSALPYCTWQEVQARIVQTQKEHQICIHKRELTELDIYHRILRFQNYMVALVNKSLLPLRFRLPGLGEVVFFTRGLKYNFELILFWGPGSLFLNEWSLKAEYKRGGQRLELAQRLSNRILWIGIANFLLCPLILIWQILYAFFSYAEVLKREPGALGARCWSLYGRCYLRHFNELEHELQSRLNRGYKPASKYMNCFLSPLLTLLAKNGAFFAGSILAVLIALTIYDEDVLAVEHVLTTVTLLGVTVTVCRSFIPDQHMVFCPEQLLRVILAHIHYMPDHWQGNAHRSQTRDEFAQLFQYKAVFILEELLSPIVTPLILIFCLRPRALEIIDFFRNFTVEVVGVGDTCSFAQMDVRQHGHPQWLSGGQTEASVYQQAEDGKTELSLMHFAITNPGWQPPRESTAFLGFLKEQVQRDGAAAGLAQGGLLPENALFTSIQSLQSESEPLSLIANVVAGSSCRGPSLSRDLQGSRHRADVASALRSFSPLQPGAAPQGRVPSTMTGSGVDARTASSGSSVWEGQLQSLVLSEYASTEMSLHALYMHQLHKQQTQAEPERHVWHRRESDESGESAPEEGGEGARAPQPIPRSASYPCATPRPGAPETTALHGGFQRRYGGITDPGTVPRGPSHFSRLPLGGWAEDGQPASRHPEPVPEEGSEDELPPQVHKV
notes: Endogenous protein in mouse BMDM lysates
B4: AIM2 (mouse, endogenous in BMDMs) (other, UniProt Q91VJ1 1-354, looked up)
chain: MESEYREMLLLTGLDHITEEELKRFKYFALTEFQIARSTLDVADRTELADHLIQSAGAASAVTKAINIFQKLNYMHIANALEEKKKEAERKLMTNTKKRGTQKVENRSQAENCSAASATRSDNDFKEQAATEVCPQAKPQKKQMVAEQEAIREDLQKDPLVVTVLKAINPFECETQEGRQEIFHATVATETDFFFVKVLNAQFKDKFIPKRTIKISNYLWHSNFMEVTSSSVVVDVESNHEVPNNVVKRARETPRISKLKIQPCGTIVNGLFKVQKITEEKDRVLYGIHDKTGTMEVLVLGNPSKTKCEEGDKIRLTFFEVSKNGVKIQLKSGPCSFFKVIKAAKPKTDMKSVE
B5: AIM2 (human, full length) (other, UniProt O14862 1-343, looked up)
chain: MESKYKEILLLTGLDNITDEELDRFKFFLSDEFNIATGKLHTANRIQVATLMIQNAGAVSAVMKTIRIFQKLNYMLLAKRLQEEKEKVDKQYKSVTKPKPLSQAEMSPAASAAIRNDVAKQRAAPKVSPHVKPEQKQMVAQQESIREGFQKRCLPVMVLKAKKPFTFETQEGKQEMFHATVATEKEFFFVKVFNTLLKDKFIPKRIIIIARYYRHSGFLEVNSASRVLDAESDQKVNVPLNIIRKAGETPKINTLQTQPLGTIVNGLFVVQKVTEKKKNILFDLSDNTGKMEVLGVRNEDTMKCKEGDKVRLTFFTLSKNGEKLQLTSGVHSTIKVIKAKKKT
notes: also called Flag-AIM2; GFP-AIM2
B6: MEKK3 (mouse, endogenous in BMDMs) (enzyme, UniProt Q61084 1-626, looked up)
chain: MDEQEALDSIMKDLVALQMSRRTRLSGYETMKNKDTGHPNRQSDVRIKFEHNGERRIIAFSRPVRYEDVEHKVTTVFGQPLDLHYMNNELSILLKNQDDLDKAIDILDRSSSMKSLRILLLSQDRNHTSSSPHSGVSRQVRIKPSQSAGDINTIYQAPEPRSRHLSVSSQNPGRSSPPPGYVPERQQHIARQGSYTSINSEGEFIPETSEQCMLDPLSSAENSLSGSCQSLDRSADSPSFRKSQMSRARSFPDNRKECSDRETQLYDKGVKGGTYPRRYHVSVHHKDYNDGRRTFPRIRRHQGNLFTLVPSSRSLSTNGENMGVAVQYLDPRGRLRSADSENALTVQERNVPTKSPSAPINWRRGKLLGQGAFGRVYLCYDVDTGRELASKQVQFDPDSPETSKEVSALECEIQLLKNLQHERIVQYYGCLRDRAEKILTIFMEYMPGGSVKDQLKAYGALTESVTRKYTRQILEGMSYLHSNMIVHRDIKGANILRDSAGNVKLGDFGASKRLQTICMSGTGIRSVTGTPYWMSPEVISGEGYGRKADVWSLGCTVVEMLTEKPPWAEYEAMAAIFKIATQPTNPQLPSHISEHGRDFLRRIFVEARQRPSAEELLTHHFAQLVY
notes: Endogenous protein in mouse BMDM lysates; also called Map3k3

Assays:
[1] = target: T1, Beclin 2 (human, full length); experiment: co-IP with anti-Flag beads and immunoblot; HEK293T cells co-transfected with HA-Beclin 2 and a Flag-tagged plasmid (FIG. 25A)
[2] = target: T1, Beclin 2 (human, full length); experiment: co-IP with anti-Flag beads and immunoblot; HEK293T cells co-transfected with HA-Beclin 2 and Flag-tagged SNARE or RAB proteins (FIG. 32A)
ATG9A (human) [3] = target: T2, ATG9A (human); experiment: endogenous co-IP; WT and BECN2 KO THP-1 cell lysates immunoprecipitated with ATG9A antibodies, immunoblot (FIG. 32D)
[4] = target: NLRP3 (mouse, endogenous in BMDMs) (mouse, UniProt Q8R4B8 1-1033); experiment: endogenous co-IP; WT and Becn2 KO BMDM lysates (untreated or LPS 3 h) immunoprecipitated with ATG9A antibodies, immunoblot (FIG. 30F)
NLRP3 (mouse, endogenous in BMDMs), sequence (Q8R4B8 whole entry): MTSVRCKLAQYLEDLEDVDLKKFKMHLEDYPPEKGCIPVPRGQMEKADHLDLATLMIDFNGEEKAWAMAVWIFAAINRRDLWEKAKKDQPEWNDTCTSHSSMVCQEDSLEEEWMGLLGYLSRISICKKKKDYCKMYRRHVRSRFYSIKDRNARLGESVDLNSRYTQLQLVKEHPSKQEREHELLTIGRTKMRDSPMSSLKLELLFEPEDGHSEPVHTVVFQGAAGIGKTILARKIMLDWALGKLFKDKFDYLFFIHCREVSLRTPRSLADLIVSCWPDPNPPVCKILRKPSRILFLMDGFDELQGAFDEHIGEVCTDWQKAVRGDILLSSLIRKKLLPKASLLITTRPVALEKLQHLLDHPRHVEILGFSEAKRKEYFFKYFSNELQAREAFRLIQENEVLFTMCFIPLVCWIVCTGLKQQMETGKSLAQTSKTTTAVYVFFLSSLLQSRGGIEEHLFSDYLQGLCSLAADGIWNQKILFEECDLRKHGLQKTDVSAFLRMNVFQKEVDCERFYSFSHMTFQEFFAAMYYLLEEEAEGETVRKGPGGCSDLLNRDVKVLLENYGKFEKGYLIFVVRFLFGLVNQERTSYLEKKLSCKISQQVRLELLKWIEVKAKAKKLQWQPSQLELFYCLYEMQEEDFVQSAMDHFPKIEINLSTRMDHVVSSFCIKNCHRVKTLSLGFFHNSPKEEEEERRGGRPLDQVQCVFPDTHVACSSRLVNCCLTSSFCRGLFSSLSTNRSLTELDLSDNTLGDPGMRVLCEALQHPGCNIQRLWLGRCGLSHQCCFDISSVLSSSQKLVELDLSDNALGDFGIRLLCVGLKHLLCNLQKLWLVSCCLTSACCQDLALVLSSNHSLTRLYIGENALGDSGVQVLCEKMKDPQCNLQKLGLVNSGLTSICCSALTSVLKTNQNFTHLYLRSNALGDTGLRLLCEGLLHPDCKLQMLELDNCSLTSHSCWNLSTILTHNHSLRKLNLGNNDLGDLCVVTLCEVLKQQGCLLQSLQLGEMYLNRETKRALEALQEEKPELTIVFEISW

[5] = target: B3; experiment: as above
ATG9A (human) [6] = target: T2, ATG9A (human); experiment: co-IP with anti-Flag beads; WT, BECN2 KO and ULK1 KO HEK293T cells co-transfected with HA-ATG9A and Flag-AIM2 (FIG. 30D)
[7] = target: B3; experiment: endogenous co-IP; BMDM lysates (untreated or LPS) immunoprecipitated with MEKK3 antibodies, immunoblot (FIG. 12D)

B1: binds [1].

B2: binds [2]; binds (ATG9A (human) [3]).

B3: binds [4].

B4: binds [5].

B5: binds (ATG9A (human) [6]).

B6: binds [7].
